The data set has as its target myc-tagged LIMP-2.

B1: wild-type β-glucocerebrosidase (GC), human, overexpressed in cells (protein)
chain: ARPCIPKSFGYSSVVCVCNATYCDSFDPPTFPALGTFSRYESTRSGRRMELSMGPIQANHTGTGLLLTLQPEQKFQKVKGFGGAMTDAAALNILALSPPAQNLLLKSYFSEEGIGYNIIRVPMASCDFSIRTYTYADTPDDFQLHNFSLPEEDTKLKIPLIHRALQLAQRPVSLLASPWTSPTWLKTNGAVNGKGSLKGQPGDIYHQTWARYFVKFLDAYAEHKLQFWAVTAENEPSAGLLSGYPFQCLGFTPEHQRDFIARDLGPTLANSTHHNVRLLMLDDQRLLLPHWAKVVLTDPEAAKYVHGIAVHWYLDFLAPAKATLGETHRLFPNTMLFASEACVGSKFWEQSVRLGSWDRGMQYSHSIITNLLYHVVGWTDWNLALNPEGGPNWVRNFVDSPIIVDITKDTFYKQPMFYHLGHFSKFIPEGSQRVGLVASQKNDLDAVALMHPDGSAVVVVLNRSSKDVPLTIKDPAVGFLETISPGYSIHTYLWRRQ
Regarding B1, the “GC enzymatic activity on co-expression with LIMP-2” value was “Upon co-expression of wild-type GC and LIMP-2 we observed a significant increase in GC activity”.

(Values after patent US20170258870.)
